Source: US20210061859A1, “NTCP Inhibitor” (The University of Tokyo, priority 2018, published 2021)
Each block holds one molecule with its values, some of them ahead of it. Where a SMILES comes first, the peptide text is derived from it. Bridges are numbered along the chain shown (N, C = ends).

Legend:
human NTCP = target: T1, human NTCP (Homo sapiens, UniProt Q14973); experiment: Surface plasmon resonance binding to immobilized recombinant NTCP; conditions: Kd, single-cycle kinetics, 1:1 binding model, NTCP immobilized on NTA-Ni2+
T1 construct: made in house; host or cells: wheat germ cell-free protein synthesis system
T1 sequence (Q14973 1-349): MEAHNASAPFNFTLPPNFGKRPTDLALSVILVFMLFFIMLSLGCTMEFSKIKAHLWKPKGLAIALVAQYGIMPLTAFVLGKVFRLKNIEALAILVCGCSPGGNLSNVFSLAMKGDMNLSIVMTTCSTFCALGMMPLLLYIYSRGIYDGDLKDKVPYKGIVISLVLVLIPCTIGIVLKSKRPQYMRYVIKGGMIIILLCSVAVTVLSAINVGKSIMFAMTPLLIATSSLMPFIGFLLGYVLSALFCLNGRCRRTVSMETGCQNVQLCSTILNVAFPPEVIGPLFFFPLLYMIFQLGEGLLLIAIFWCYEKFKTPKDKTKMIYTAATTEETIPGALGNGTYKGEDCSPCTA
Method: (§1) FIG. 7 is a diagram showing the NTCP association constant of a peptide identified by first RaPID screening. A single-cycle reaction kinetics experiment was conducted using NTCP immobilized on surface (NTA-Ni^2+) involving varying concentrations of a cyclic peptide analyte. In each case, as shown in the drawing, the peptide was tested with 4-fold serial dilutions starting from the highest concentration of 200 or 1000 nM. A dissociation constant (KD) was determined using a 1:1 binding model.
as §1, with “9” for “7”, “focused library” for “first”, “association constant” for “reaction kinetics”
The association constant of each peptide for human NTCP was measured using a Biacore T200 apparatus (GE Healthcare Japan Corp.). The running buffer solution used was HBS-P+ (10 mM HEPES, 150 mM NaCl, and 0.05 vol % surfactant P20, pH 7.4) containing 0.1 vol % DMSO and 1 mM β-dodecyl-maltoside. 100 nM recombinant NTCP was immobilized on a NTA chip treated with Ni^2+ according to the manufacturer's instructions (baseline response: 1000 to 3000 refraction units). Peptides were injected as analytes at a flow rate of 60 μL/min, and association constants were modelled using a 1:1 binding model.

[1] = target: T2, His-tagged recombinant NTCP protein (human sodium taurocholate cotransporting polypeptide) (human), Q14973; experiment: SPR (Biacore T200), single-cycle kinetics, His-NTCP on Ni2+-NTA chip, peptide as analyte, 1:1 model
T2 chain: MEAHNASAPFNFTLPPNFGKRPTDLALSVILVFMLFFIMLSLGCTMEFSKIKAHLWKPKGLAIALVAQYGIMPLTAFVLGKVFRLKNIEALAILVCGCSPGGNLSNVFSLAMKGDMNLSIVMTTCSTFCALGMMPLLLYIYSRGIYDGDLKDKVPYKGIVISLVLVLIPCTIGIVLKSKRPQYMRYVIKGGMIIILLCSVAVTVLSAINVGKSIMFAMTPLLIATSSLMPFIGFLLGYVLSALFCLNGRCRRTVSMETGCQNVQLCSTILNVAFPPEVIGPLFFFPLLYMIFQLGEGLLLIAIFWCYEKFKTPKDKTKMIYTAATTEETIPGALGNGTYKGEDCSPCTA

Molecule: CC(C)C[C@@H]1NC(=O)[C@H](Cc2ccc(O)cc2)NC(=O)CSC[C@@H](C(=O)NCC(N)=O)NC(=O)[C@H](C(C)C)NC(=O)[C@H](CC(N)=O)NC(=O)[C@H](Cc2ccc(O)cc2)NC(=O)[C@H](C)NC(=O)[C@H](Cc2ccc(O)cc2)NC(=O)[C@H](CO)NC(=O)[C@H]([C@@H](C)O)NC(=O)[C@H](CC(N)=O)NC(=O)[C@@H]2CCCN2C(=O)[C@H](Cc2c[nH]c3ccccc23)NC(=O)[C@H]([C@@H](C)O)NC(=O)[C@H](Cc2c[nH]c3ccccc23)NC(=O)[C@H](CC(C)C)NC(=O)[C@H](Cc2ccc(O)cc2)NC1=O [L4] ({CH2CO}-YLYLWTWPNTSYAYNVCG-NH2; thioether N-17)
Kd (human NTCP): 30 nM

Molecule: CC(C)C[C@@H]1NC(=O)[C@H](CC(=O)O)NC(=O)[C@H](CC(C)C)NC(=O)[C@H](Cc2ccccc2)NC(=O)[C@H](Cc2c[nH]c3ccccc23)NC(=O)[C@H](CO)NC(=O)[C@H](CCCNC(=N)N)NC(=O)[C@H](CCC(=O)O)NC(=O)[C@H](C)NC(=O)[C@H](Cc2c[nH]c3ccccc23)NC(=O)[C@H](CC(C)C)NC(=O)[C@H](CC(C)C)NC(=O)[C@H](Cc2c[nH]c3ccccc23)NC(=O)[C@H](C(C)C)NC(=O)[C@H](Cc2ccc(O)cc2)NC(=O)CSC[C@@H](C(=O)NCC(N)=O)NC(=O)CNC1=O [L2] ({CH2CO}-YVWLLWAERSWFLDLGCG-NH2; thioether N-17)
Kd (human NTCP): 374 nM

Molecule: YTYKYSGIWIWIWCT (modifications not checked) [WL1]
Kd [1]: 360 nM

Molecule: YTWTWHSAYLYVFCT (modifications not checked) [WL3]
Kd [1]: 57 nM

Molecule: YTWTWNSAFLYVYCT (modifications not checked) [WL6]
Kd [1]: 36 nM

Molecule: YNYIYYPSIHIFYLCT (modifications not checked) [PD1]
Kd [1]: 149 nM

Molecule: YHYWYPEWNTALYIWPCG (modifications not checked) [NTCP-D3]
Kd [1]: 50 nM

Molecule: YILVYPELHLFLLYSCG (modifications not checked) [NTCP-D4]
Kd [1]: 2270 nM

Molecule: YVWLLWAERSWFLDLGCG (modifications not checked) [NTCP-L2]
Kd [1]: 374 nM

Further lines, results first:

Kd [1]: 14 nM
Molecule: YTWIWGGLYVVYFPCT (modifications not checked) [WD2]

Kd [1]: 15 nM
Molecule: YALIWTWSQYYQYYSCT (modifications not checked) [WD3]

Kd [1]: 11 nM
Molecule: YTFTYAQIWIWYYGCT (modifications not checked) [WD4]

Kd [1]: 10 nM
Molecule: YTWTWQNSFIWIYCT (modifications not checked) [WL5]

Kd [1]: 14 nM
Molecule: YWWAINPHIHVFTWPCG (modifications not checked) [NTCP-D2]

Kd [1]: 21 nM
Molecule: YLYTWTWHSNWTVTSLCG (modifications not checked) [NTCP-L1]

Kd [1]: 13 nM
Molecule: YLWIFHQNWYTFDLGCG (modifications not checked) [NTCP-L3]

Kd [1]: 30 nM
Molecule: YLYLWTWPNTSYAYNVCG (modifications not checked) [NTCP-L4]

Kd [1]: 4 nM
Molecule: YTWNTHHYYIWLNCG (modifications not checked) [NTCP-L5]
